This is an account of results in the supplement of paper PMC11316812.

± gives the standard deviation of the averaged measurements.

In one series the test system is MCF7. The experiment in a line: percentage of EdU-negative (G0-arrested) nuclei per well, 72 h; higher = more G0 arrest. Particulars: reference: sequence is the full UniProt precursor, the tested protein was the secreted form or ectodomain.
The test system of a further series is hTERT-HMEC. The series is described as above. Conditions: reference: sequence is the full UniProt precursor, the tested protein was the secreted form or ectodomain.
The mark [1] stands for this setting: protein concentration 0.0257143 µM.
Setting [2] is: protein concentration 0.257143 µM.
[3] abbreviates: protein concentration 0.0225 µM.
Where [4] appears, read: protein concentration 0.0357143 µM.
Where [5] appears, read: protein concentration 0.357143 µM.
Setting [6] is: protein concentration 0.023905 µM.
Setting [7] is: protein concentration 0.23905 µM.
The mark [8] stands for this setting: protein concentration 0.0128525 µM.
The mark [9] stands for this setting: protein concentration 0.128525 µM.
The mark [10] stands for this setting: protein concentration 0.00828571 µM.
[11] abbreviates: protein concentration 0.0828571 µM.
[12] abbreviates: protein concentration 0.03125 µM.
Setting [13] is: protein concentration 0.3125 µM.
Where [14] appears, read: protein concentration 0.0277143 µM.
[15] abbreviates: protein concentration 0.277143 µM.
The mark [16] stands for this setting: protein concentration 0.00669 µM.
[17] abbreviates: protein concentration 0.0669 µM.
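Also: secreted proteins added to cultured cells, EdU pulse at the end, nuclei found by Hoechst imaging, EdU status from nuclear versus surrounding ring intensity ratio, PBS as neutral control.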

For the sequence “MAPPSVPLVLLLVLLLSLAETPASAPAHRGRGGWTLNSAGYLLGPVLHLPQMGDQDGKRETALEILDLWKAIDGLPYSHPPQPSKRNVMETFAKPEIGDLGMLSMKIPKEEDVLKS [Q9UBC7]”, the “percentage of EdU-negative” value with MCF7 (setting [1]) was 25.7 ± 2.2%; with MCF7 (setting [2]), 27.5 ± 3%; with hTERT-HMEC (setting [1]) it was 5.31 ± 1.9%; in the series on hTERT-HMEC (setting [2]) it was 6.11 ± 0.2%.

In the case of “MAPRARRRRPLFALLLLCALLARLQVALQIAPPCTSEKHYEHLGRCCNKCEPGKYMSSKCTTTSDSVCLPCGPDEYLDSWNEEDKCLLHKVCDTGKALVAVVAGNSTTPRRCACTAGYHWSQDCECCRRNTECAPGLGAQHPLQLNKDTVCKPCLAGYFSDAFSSTDKCRPWTNCTFLGKRVEHHGTEKSDAVCSSSLPARKPPNEPHVYLPGLIILLLFASVALVAAIIFGVCYRKKGKALTANLWHWINEACGRLSGDKESSGDSCVSTHTANFGQQGACEGVLLLTLEEKTFPEDMCYPDQGGVCQGTCVGGGPYAQGEDARMLSLVSKTEIEEDSFRQMPTEDEYMDRPSQPTDQLLFLTEPGSKSTPPFSEPLEVGENDSLSQCFTGTQSTVGSESCNCTEPLCRTDWTPMSSENYLQKEVDSGHCPHWAASPSPNWADVCTGCRNPPGEDCEPLVGSPKRGPLPQCAYGMGLPPEEEASRTEARDQPEDGADGRLPSSARAGAGSGSSPGGQSPASGNVTGNSNSTFISSGQVMNFKGDIIVVYVSQTSQEGAAAAAEPMGRPVQEETLARRDSFAGNGPRFPDPCGGPEGLREPEKASRPVQEQGGAKA [Q9Y6Q6]”, the “percentage of EdU-negative” value worked out at 24 ± 1.9% with MCF7 (setting [3]), 25.6 ± 1.8% with MCF7 (protein concentration 0.225 µM), 5.19 ± 0.68% in the series with hTERT-HMEC (setting [3]) and 5.83 ± 0.025% with hTERT-HMEC (protein concentration 0.225 µM).

On to “MAPRGCIVAVFAIFCISRLLCSHGAPVAPMTPYLMLCQPHKRCGDKFYDPLQHCCYDDAVVPLARTQTCGNCTFRVCFEQCCPWTFMVKLINQNCDSARTSDDRLCRSVS [Q6UW32]”, for which the “percentage of EdU-negative” value in the series on MCF7 (setting [4]) came to 24.2 ± 1.9%; in the series with MCF7 (setting [5]), 25.5 ± 0.59%; with hTERT-HMEC (setting [4]), 4.73 ± 0.98%; in the series with hTERT-HMEC (setting [5]), 5.65 ± 1.1%.

Turning to “MAPRRARGCRTLGLPALLLLLLLRPPATRGITCPPPMSVEHADIWVKSYSLYSRERYICNSGFKRKAGTSSLTECVLNKATNVAHWTTPSLKCIRDPALVHQRPAPPSTVTTAGVTPQPESLSPSGKEPAASSPSSNNTAATTAAIVPGSQLMPSKSPSTGTTEISSHESSHGTPSQTTAKNWELTASASHQPPGVYPQGHSDTTVAISTSTVLLCGLSAVSLLACYLKSRQTPPLASVEMEAMEALPVTWGTSSRDEDLENCSHHL”, the “percentage of EdU-negative” value was determined as 27.1 ± 0.76% in the series with MCF7 (setting [6]), 25.6 ± 2.6% in the series on MCF7 (setting [7]), 5.18 ± 0.25% in the series on hTERT-HMEC (setting [6]) and 6.6 ± 0.68% with hTERT-HMEC (setting [7]).

“MAPRRVRSFLRGLPALLLLLLFLGPWPAASHGGKYSREKNQPKPSPKRESGEEFRMEKLNQLWEKAQRLHLPPVRLAELHADLKIQERDELAWKKLKLDGLDEDGEKEARLIRNLNVILAKYGLDGKKDARQVTSNSLSGTQEDGLDDPRLEKLWHKAKTSGKFSGEELDKLWREFLHHKEKVHEYNVLLETLSRTEEIHENVISPSDLSDIKGSVLHSRHTELKEKLRSINQGLDRLRRVSHQGYSTEAEFEEPRVIDLWDLAQSANLTDKELEAFREELKHFEAKIEKHNHYQKQLEIAHEKLRHAESVGDGERVSRSREKHALLEGRTKELGYTVKKHLQDLSGRISRARHNEL”: the “percentage of EdU-negative” value in the series with MCF7 (setting [8]) worked out at 24.3 ± 0.53%; in the series on MCF7 (setting [9]), 26.4 ± 1.4%; with hTERT-HMEC (setting [8]) it was 4.97 ± 0.51%; in the series on hTERT-HMEC (setting [9]) it was 6.45 ± 0.82%.

On to “MAPRTLWSCYLCCLLTAAAGAASYPPRGFSLYTGSSGALSPGGPQAQIAPRPASRHRNWCAYVVTRTVSCVLEDGVETYVKYQPCAWGQPQCPQSIMYRRFLRPRYRVAYKTVTDMEWRCCQGYGGDDCAESPAPALGPASSTPRPLARPARPNLSGSSAGSPLSGLGGEGPGESEKVQQLEEQVQSLTKELQGLRGVLQGLSGRLAEDVQRAVETAFNGRQQPADAAARPGVHETLNEIQHQLQLLDTRVSTHDQELGHLNNHHGGSSSSGGSRAPAPASAPPGPSEELLRQLEQRLQESCSVCLAGLDGFRRQQQEDRERLRAMEKLLASVEERQRHLAGLAVGRRPPQECCSPELGRRLAELERRLDVVAGSVTVLSGRRGTELGGAAGQGGHPPGYTSLASRLSRLEDRFNSTLGPSEEQEESWPGAPGGLSHWLPAARGRLEQLGGLLANVSGELGGRLDLLEEQVAGAMQACGQLCSGAPGEQDSQVSEILSALERRVLDSEGQLRLVGSGLHTVEAAGEARQATLEGLQEVVGRLQDRVDAQDETAAEFTLRLNLTAARLGQLEGLLQAHGDEGCGACGGVQEELGRLRDGVERCSCPLLPPRGPGAGPGVGGPSRGPLDGFSVFGGSSGSALQALQGELSEVILSFSSLNDSLNELQTTVEGQGADLADLGATKDRIISEINRLQQEATEHATESEERFRGLEEGQAQAGQCPSLEGRLGRLEGVCERLDTVAGGLQGLREGLSRHVAGLWAGLRETNTTSQMQAALLEKLVGGQAGLGRRLGALNSSLQLLEDRLHQLSLKDLTGPAGEAGPPGPPGLQGPPGPAGPPGSPGKDGQEGPIGPPGPQGEQGVEGAPAAPVPQVAFSAALSLPRSEPGTVPFDRVLLNDGGYYDPETGVFTAPLAGRYLLSAVLTGHRHEKVEAVLSRSNQGVARVDSGGYEPEGLENKPVAESQPSPGTLGVFSLILPLQAGDTVCVDLVMGQLAHSEEPLTIFSGALLYGDPELEHA [A0A0C4DFX3]”, for which the “percentage of EdU-negative” value with MCF7 (setting [10]) is 26.3 ± 1.3%; in the series on MCF7 (setting [11]), 30.4 ± 3.6%; in the series with hTERT-HMEC (setting [10]), 4.9 ± 0.43%; in the series with hTERT-HMEC (setting [11]), 4.36 ± 0.72%.

Take “MAPSSPRPALPALLVLLGALFPGPGNAQTSVSPSKVILPRGGSVLVTCSTSCDQPKLLGIETPLPKKELLLPGNNRKVYELSNVQEDSQPMCYSNCPDGQSTAKTFLTVYWTPERVELAPLPSWQPVGKNLTLRCQVEGGAPRANLTVVLLRGEKELKREPAVGEPAEVTTTVLVRRDHHGANFSCRTELDLRPQGLELFENTSAPYQLQTFVLPATPPQLVSPRVLEVDTQGTVVCSLDGLFPVSEAQVHLALGDQRLNPTVTYGNDSFSAKASVSVTAEDEGTQRLTCAVILGNQSQETLQTVTIYSFPAPNVILTKPEVSEGTEVTVKCEAHPRAKVTLNGVPAQPLGPRAQLLLKATPEDNGRSFSCSATLEVAGQLIHKNQTRELRVLYGPRLDERDCPGNWTWPENSQQTPMCQAWGNPLPELKCLKDGTFPLPIGESVTVTRDLEGTYLCRARSTQGEVTRKVTVNVLSPRYEIVIITVVAAAVIMGTAGLSTYLYNRQRKIKKYRLQQAQKGTPMKPNTQATPP”: the “percentage of EdU-negative” value in the series on MCF7 (setting [12]) is 24.7 ± 1.5%; in the series with MCF7 (setting [13]), 24.2 ± 3.4%; in the series with hTERT-HMEC (setting [12]), 5 ± 0.26%; in the series on hTERT-HMEC (setting [13]), 5.68 ± 0.88%.

Regarding “MAPVAVWAALAVGLELWAAAHALPAQVAFTPYAPEPGSTCRLREYYDQTAQMCCSKCSPGQHAKVFCTKTSDTVCDSCEDSTYTQLWNWVPECLSCGSRCSSDQVETQACTREQNRICTCRPGWYCALSKQEGCRLCAPLRKCRPGFGVARPGTETSDVVCKPCAPGTFSNTTSSTDICRPHQICNVVAIPGNASMDAVCTSTSPTRSMAPGAVHLPQPVSTRSQHTQPTPEPSTAPSTSFLLPMGPSPPAEGSTGDFALPVGLIVGVTALGLLIIGVVNCVIMTQVKKKPLCLQREAKVPHLPADKARGTQGPEQQHLLITAPSSSSSSLESSASALDRRAPTRNQPQAPGVEASGAGEARASTGSSDSSPGGHGTQVNVTCIVNVCSSSDHSSQCSSQASSTMGDTDSSPSESPKDEQVPFSKEECAFRSQLETPETLLGSTEEKPLPLGVPDAGMKPS”, the “percentage of EdU-negative” value in the series on MCF7 (setting [14]) worked out at 22.2 ± 1.9%; with MCF7 (setting [15]), 23.6 ± 1.1%; in the series with hTERT-HMEC (setting [14]), 5.56 ± 0.29%; with hTERT-HMEC (setting [15]) it was 6.09 ± 1.2%.

For “MAQHGAMGAFRALCGLALLCALSLGQRPTGGPGCGPGRLLLGTGTDARCCRVHTTRCCRDYPGEECCSEWDCMCVQPEFHCGDPCCTTCRHHPCPPGQGVQSQGKFSFGFQCIDCASGTFSGGHEGHCKPWTDCTQFGFLTVFPGNKTHNAVCVPGSPPAEPLGWLTVVLLAVAACVLLLTSAQLGLHIWQLRSQCMWPRETQLLLEVPPSTEDARSCQFPEEERGERSAEEKGRLGDLWV [Q9Y5U5]”, the “percentage of EdU-negative” value came to 24.9 ± 1.6% in the series with MCF7 (setting [16]), 23.9 ± 0.75% with MCF7 (setting [17]), 5.37 ± 0.9% with hTERT-HMEC (setting [16]) and 6.01 ± 1.5% in the series on hTERT-HMEC (setting [17]).

As to “MAQHHLWILLLCLQTWPEAAGKDSEIFTVNGILGESVTFPVNIQEPRQVKIIAWTSKTSVAYVTPGDSETAPVVTVTHRNYYERIHALGPNYNLVISDLRMEDAGDYKADINTQADPYTTTKRYNLQIYRRLGKPKITQSLMASVNSTCNVTLTCSVEKEEKNVTYNWSPLGEEGNVLQIFQTPEDQELTYTCTAQNPVSNNSDSISARQLCADIAMGFRTHHTGLLSVLAMFFLLVLILSSVFLFRLFKRRQGRIFPEGSCLNTFTKNPYAASKKTIYTYIMASRNTQPAESRIYDEILQSKVLPSKEEPVNTVYSEVQFADKMGKASTQDSKPPGTSSYEIVI [Q9UIB8]”, the “percentage of EdU-negative” value in the series on MCF7 (setting [3]) came to 27.3 ± 3%; in the series with MCF7 (protein concentration 0.225 µM), 26.8 ± 1.5%; with hTERT-HMEC (setting [3]), 4.54 ± 0.35%; in the series with hTERT-HMEC (protein concentration 0.225 µM), 5.92 ± 0.51%.

As for “MAQLCGLRRSRAFLALLGSLLLSGVLAADRERSIHDFCLVSKVVGRCRASMPRWWYNVTDGSCQLFVYGGCDGNSNNYLTKEECLKKCATVTENATGDLATSRNAADSSVPSAPRRQDSEDHSSDMFNYEEYCTANAVTGPCRASFPRWYFDVERNSCNNFIYGGCRGNKNSYRSEEACMLRCFRQQENPPLPLGSKVVVLAGLFVMVLILFLGASMVYLIRVARRNQERALRTVWSSGDDKEQLVKNTYVL”, the “percentage of EdU-negative” value came to 24.2 ± 2% with MCF7 (setting [3]), 25.4 ± 0.69% with MCF7 (protein concentration 0.225 µM), 4.91 ± 0.26% in the series with hTERT-HMEC (setting [3]) and 5.37 ± 0.98% in the series with hTERT-HMEC (protein concentration 0.225 µM).
